Molecular target: T1, PED/PEA-15 over-expressed in transgenic Tg_(Ped/pea-15) mice (UniProt Q15121 1-130)
T1 construct: PED/PEA-15 expressed from the transgene of Tg_(Ped/pea-15) mice; The precipitate from transgenic muscle holds the transgene's product together with the endogenous mouse protein; source: transgenic mice with ubiquitous over-expression of Ped/pea-15, tibialis skeletal muscle lysate
Experiment: co-IP; tibialis skeletal muscle lysate (0.5-1 mg) of Wt and Tg_(Ped/pea-15) mice, precleared with pre-immune serum, anti-PED/PEA-15 antibody overnight at 4°C, protein A sepharose, blot with anti-PLD1
Conditions: partners not purified

T1 sequence (Q15121 whole entry): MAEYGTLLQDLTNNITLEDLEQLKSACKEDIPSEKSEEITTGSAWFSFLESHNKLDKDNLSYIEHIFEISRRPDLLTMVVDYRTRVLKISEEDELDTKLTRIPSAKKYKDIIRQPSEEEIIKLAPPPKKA

B1: Phospholipase D1 (PLD1), endogenous in mouse skeletal muscle (enzyme, UniProt Q9Z280 1-1074, looked up)
chain: MSLKSETRVNTSTLQKIAADMSNLIENLDTRELHFEGEEVEYDASPGDPKAQEGCIPFSSIYNTQGFKEPNIQTYLSGCPIKAQVLEVERFTSTSRVPSINLYTIELTHGEFTWQVKRKFKHFQEFHRELLKYKAFIRIPIPTKRHTFRRQNVKEEPREMPSLPRSSENAIQEEQFFGRRKQLEDYLTKILKMPMYRNYHATTEFLDVSQLSFIHDLGPKGLEGMIMKRSGGHRIPGVNCCGHGRACYRWSKRWLIVKDSFLLYMKPDSGAIAFVLLVDKEFRVKVGRKETETKYGLRIDNLSRTLILKCNSYRHARWWGGAIEEFIRKHGADFLKDHRFGSYAALHENTLAKWYVNAKGYFEDIANAMEEASEEIFITDWWLSPEIFLKRPVVEGNRWRLDCILKRKAQQGVRIFIMLYKEVELALGINSEYSKRTLMRLHPNIKVMRHPDHVSSSVYLWAHHEKLVIIDQSVAFVGGIDLAYGRWDDNEHRLTDVGSVKRVTSGLSLGSLTAASVESMESLSLKDKHEFHKKEPISKIVDETDMKLKGIGKSRKFSKFSLYRQLHRHHLHNADSISSIDSTSSYFSHCRSHQNLIHGLKPHLKLFHPSSESEQGLTRHSTDTGSIRSVQTGVGELHGETRFWHGKDYCNFVFKDWVQLDKPFADFIDRYSTPRMPWHDIGSVVHGKAARDVARHFIQRWNFTKIMKPKYRSLSYPFLLPKSQATAHELRYQVPGAVPAKVQLLRSAADWSAGIKHHEESIHAAYIHVIENSKHYIYIENQFFISCADDKVVFNKVGDRIAQRILKAHREGQRYRVYIVIPLLPGFEGDISTGGGNALQAIMHFNYRTMCRGESSILEQLKPELGNKWINYISFCGLRTHAELEGNLVTELIYVHSKLLIADDNTVIIGSANINDRSMLGKRDSEMAVIVQDTETVPSVMDGKEYQAGRFARDLRLECFRLVLGYLSDPSEDLQDPVSDKFFKEIWVSTAARNATIYDKVFRCLPNDEVHNLIQLRDFINKPILAKEDALRAEEELRKIRGFLVQFPLYFLSEENLLPSVGTKEAIVPMEVWT
notes: Phospholipase D1, endogenous protein of mouse skeletal muscle; Detected by blot with an anti-PLD1 antibody in the anti-PED/PEA-15 precipitate; source: endogenous, tibialis skeletal muscle lysate of Wt and Tg_(Ped/pea-15) mice
In the case of B1, the “fold increase of the co-precipitated interaction against Wt mice” value is reported as 4 fold.

Reference: publication PMC3621763, “Adenoviral Gene Transfer of PLD1-D4 Enhances Insulin Sensitivity in Mice by Disrupting Phospholipase D1 Interaction with PED/PEA-15” (PLoS ONE, 2013)
